Measured values from publication PMC5430821.
pKd: −log10 of the molar value.

Molecular target: rat synaptotagmin 2 fused to the DCTM exosome-sorting peptide, displayed on exosomes (rat) (UniProt P29101)
Assay: SPR; […] (1 µM); […], single-cycle kinetics, 1:1 model, […]; 25 °C, HBS pH 7.4, 150 mM NaCl

Chain of UniProt P29101 (P29101 whole entry, the tested form may be a part): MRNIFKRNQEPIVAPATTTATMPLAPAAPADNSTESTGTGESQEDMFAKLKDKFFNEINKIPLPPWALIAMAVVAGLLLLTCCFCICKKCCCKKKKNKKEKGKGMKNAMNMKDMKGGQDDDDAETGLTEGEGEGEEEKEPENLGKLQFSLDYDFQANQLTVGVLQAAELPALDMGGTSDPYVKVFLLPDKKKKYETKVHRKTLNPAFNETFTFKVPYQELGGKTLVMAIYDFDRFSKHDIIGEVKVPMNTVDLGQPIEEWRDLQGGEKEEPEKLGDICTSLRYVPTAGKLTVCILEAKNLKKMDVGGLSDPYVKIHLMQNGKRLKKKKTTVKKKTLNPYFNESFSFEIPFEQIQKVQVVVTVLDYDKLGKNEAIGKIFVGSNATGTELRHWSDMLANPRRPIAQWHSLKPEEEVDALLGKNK

Substance: BoNT/B (B1 Okra strain) neurotoxin with non-toxic accessory proteins (complex)
- pKd: 8.85
- koff: 0.00041 s⁻¹
- kon: 310000 M⁻¹ s⁻¹

Substance: BoNT/B holotoxin (B1), pure botulinum neurotoxin type B (natural protein)
- pKd: 9.22
- koff: 0.00013 s⁻¹
- kon: 230000 M⁻¹ s⁻¹
